Assay results reported in patent US20260216242A1 (ALMAC DISCOVERY, published 2026).

T1: human ALPI on CHO cells (human, UniProt P09923 20-503)
T1 construct: whole, on cells; also called CHO-ALPI
T1 sequence (looked up): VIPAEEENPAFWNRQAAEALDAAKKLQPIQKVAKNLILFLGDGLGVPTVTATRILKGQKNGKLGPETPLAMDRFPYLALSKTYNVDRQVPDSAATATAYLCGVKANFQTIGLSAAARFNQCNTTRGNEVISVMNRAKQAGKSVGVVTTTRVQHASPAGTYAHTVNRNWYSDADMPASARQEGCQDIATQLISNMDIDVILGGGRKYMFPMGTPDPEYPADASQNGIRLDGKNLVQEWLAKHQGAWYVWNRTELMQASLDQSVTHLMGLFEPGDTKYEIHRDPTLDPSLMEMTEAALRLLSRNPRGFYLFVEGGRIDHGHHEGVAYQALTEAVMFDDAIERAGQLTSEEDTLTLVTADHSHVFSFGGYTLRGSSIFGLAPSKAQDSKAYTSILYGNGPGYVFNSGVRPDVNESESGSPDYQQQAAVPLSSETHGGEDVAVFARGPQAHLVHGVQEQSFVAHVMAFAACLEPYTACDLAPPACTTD

B1: D04 His (VHH, not shown: small tags and cut ends)
VHH: QVQLVESGGGLVQPGGSLRLSCAASESTFSINVMGWYRQAPGKQRELVATITSGDITNYADSVKGRFTISRDNAENTVYLRTNSLKPEDTAVYYCNARGEYHSGNEYDYWGQGTQVTVSS
B2: F08 His (VHH, not shown: small tags and cut ends)
VHH: QVQLVESGGGSVQAGGSLRLSCAASGPSLSNYAMGWFRQAPGKEREFVAGISWGGGRTSYTDSVKGRFTISRDNAKNTVYLQMNNLKPEDTGVYYCAGRYGRGRNVEYEYDYWGQGTQVTVSS
notes: also called #269

Legend:
human ALPP on CHO cells = target: T2, human ALPP on CHO cells (human, UniProt P05187 23-506); test: flow cytometry, CHO cells, 350 nM
T2 construct: whole, on cells; also called CHO-ALPP
Experimental: (§1) Cell surface binding of test agents to hALPP isoforms was characterized in four CHO-ALPP isoform stably transfected cell lines (CHO-ALPP, CHO-ALPPL2, CHO-ALPI and CHO-ALPL) and the resulting KDapp values determined. Adherent cells were detached from tissue culture flasks by incubating with 0.1% EDTA/PBS solution at 37° C. for ~10 minutes or until cells detached easily. Cells were re-suspended in ice-cold PBS/2% FCS in 15 ml tubes and centrifuged at 1700 rpm for 5 mins at 4° C. Supernatant was removed and the cell pellet re-suspended in PBS/2% FCS. […] Cells were incubated with 100 μl of test agents at a range of concentrations, plus controls for 1 hr on ice. The sample plate was centrifuged at 1700 rpm for 5 mins at 4° C. The supernatant was removed, and a wash performed by re-suspending the cell pellets in 0.25 mL of ice-cold PBS/2% FCS using a multichannel pipette. Samples were again centrifuged at 1700 rpm for 5 min at 4° C. Supernatant was removed and two further washes performed as described. After the final wash and centrifugation step, excess liquid was removed by blotting the plate on tissue paper. Binding of VHH (His6 tagged) agents was determined by adding 100 μl of anti-x6His tag Ab (Abcam) per cell pellet sample as appropriate and incubating on ice for 30 mins. Wash steps were performed as described previously. Fitc-anti-mouse antibody (ThermoFisher) was used to detect binding of the VHH (His6 tagged) agents by incubating with the appropriate samples for 30 min on ice in the dark. Wash steps were performed as described previously. All cell pellets were finally re-suspended in […] of ice-cold PBS/2% FCS and left on ice in the dark prior to analysis on a Merck-Millipore Guava EasyCyte HT or Thermo Fisher Attune N×T flow cytometer.

human ALPI on CHO cells = target: T1, human ALPI on CHO cells; test: flow cytometry, CHO cells, 350 nM
Experimental: as §1

T2 sequence (P05187 23-506): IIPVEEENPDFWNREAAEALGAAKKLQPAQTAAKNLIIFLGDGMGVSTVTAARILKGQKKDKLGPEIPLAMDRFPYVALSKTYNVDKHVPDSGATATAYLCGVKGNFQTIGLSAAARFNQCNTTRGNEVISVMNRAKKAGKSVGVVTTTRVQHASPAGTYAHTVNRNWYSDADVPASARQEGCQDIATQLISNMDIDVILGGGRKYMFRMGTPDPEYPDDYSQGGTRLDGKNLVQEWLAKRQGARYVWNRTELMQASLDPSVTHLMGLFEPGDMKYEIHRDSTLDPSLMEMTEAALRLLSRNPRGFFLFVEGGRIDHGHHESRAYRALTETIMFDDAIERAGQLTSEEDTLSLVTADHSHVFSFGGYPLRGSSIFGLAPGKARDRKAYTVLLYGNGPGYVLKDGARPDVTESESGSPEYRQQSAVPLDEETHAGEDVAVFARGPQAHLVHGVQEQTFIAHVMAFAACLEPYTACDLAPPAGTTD

| Binder | MFI (human ALPP on CHO cells) [MFI] | MFI (human ALPI on CHO cells) [MFI] | fold lower MFI for ALPI binding versus ALPP (human ALPI on CHO cells) [fold] |
| --- | --- | --- | --- |
| B1 | 6650 | 629 | – |
| B2 | 7370 | 99 | 75 |
